# Results from patent US20050239074.
# T1: human parathyroid hormone, P01270
# T1 chain: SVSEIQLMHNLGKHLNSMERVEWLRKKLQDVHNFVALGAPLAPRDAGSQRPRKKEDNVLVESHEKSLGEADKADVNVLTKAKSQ
# B1: Hansenula polymorpha yapsin1 (protein)
# chain: DPQFVKLEASVLRGSTYKDSQKGAKPFMLEKRADDGSVTMELQNAQSFYQVEIEIGSDKQKVGVLIDTGSSDLWVMNSNNSYCSSSSTKKLKRDGPADALQKGRDLSDLYNFNSPNEDNNAKGFLGGWGDLTTVETATQDETQTALAAQATVDCSLYGTFNPSTSNSFHNNGTTFEISYADRTFARGTWGYDDVTFNGVTVNDLSLAVADETDSSTGVFGIGLRELETTYSGGGPQHYIYDNLPFKMVDQGLINRAAYSVYLNSTESSTASILFGAVDQSKYTGSLGLLPIINTAASYGYQKPLRLQITLSAITVSDSRGQQASIGSGAAAALLDTGTTLTYAPSEIVEKLAETLGFDYSSSVGAYVARCRDVDSYAVNFDFQGKVIEAPLSSFLIALQTNSGEVSSYCALGIFSSGDESFTLGDTFLRNAYFVADLEGYQIAIANVNLNPGAEQIEVISGNSIPSASSVSDYSNTWGASATALDTDRPTTLGSVTAVGDERVTSTKKVSSVKTSTSSGSGSTSESSTSSSHSSNGPRTVGFSLCAVLCAFLISILVV
# Target: T1, human parathyroid hormone, P01270
protein,measurement,value
B1,"degradation level of hPTH by the yapsin activity (culture supernatant incubated with hPTH for 2, 4 and 6 hours at 37 C, SDS-polyacrylamide gel)","in the culture fluid of the wild type, it was already hard to observe hPTH remaining in the culture supernatant after 2 hour cultivation, while in the culture supernatant of hpyps1Δ mutant strain, a substantial amount of hPTH was observed"
